Reference: PMC4966837 (mAbs, 2015)

Target: human βc receptor on cells (TF-1 cells, human neutrophils, human eosinophils) (Homo sapiens, UniProt P32927)
Experiment: radioligand binding

Chain of human βc receptor on cells (TF-1 cells, human neutrophils, human eosinophils) (P32927 17-897): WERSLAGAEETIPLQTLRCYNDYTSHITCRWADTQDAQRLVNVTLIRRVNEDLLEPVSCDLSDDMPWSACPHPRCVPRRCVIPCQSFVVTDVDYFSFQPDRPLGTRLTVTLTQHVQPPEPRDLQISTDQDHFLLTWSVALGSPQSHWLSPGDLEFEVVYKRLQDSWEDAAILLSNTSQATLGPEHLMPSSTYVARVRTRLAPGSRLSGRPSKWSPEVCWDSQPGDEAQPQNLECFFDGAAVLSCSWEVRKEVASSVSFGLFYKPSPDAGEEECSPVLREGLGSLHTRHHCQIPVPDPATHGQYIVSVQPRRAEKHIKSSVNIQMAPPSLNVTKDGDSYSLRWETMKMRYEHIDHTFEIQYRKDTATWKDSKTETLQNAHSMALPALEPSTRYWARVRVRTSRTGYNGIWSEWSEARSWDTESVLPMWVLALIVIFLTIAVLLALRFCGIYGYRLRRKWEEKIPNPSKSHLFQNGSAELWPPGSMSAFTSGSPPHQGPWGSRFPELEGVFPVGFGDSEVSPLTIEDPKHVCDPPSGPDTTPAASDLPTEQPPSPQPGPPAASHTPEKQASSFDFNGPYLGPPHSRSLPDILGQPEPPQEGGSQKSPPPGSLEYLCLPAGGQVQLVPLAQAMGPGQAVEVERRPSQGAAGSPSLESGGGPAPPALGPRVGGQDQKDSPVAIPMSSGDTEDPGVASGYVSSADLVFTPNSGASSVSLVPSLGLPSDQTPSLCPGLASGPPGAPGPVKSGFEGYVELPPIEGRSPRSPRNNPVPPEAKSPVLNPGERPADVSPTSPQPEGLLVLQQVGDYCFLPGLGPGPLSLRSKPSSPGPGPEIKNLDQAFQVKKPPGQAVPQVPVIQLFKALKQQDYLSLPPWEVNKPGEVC

Binder	Kd
CSL311 (human IgG4-kappa monoclonal antibody) (antibody, V domains shown) VH: EVQLLESGGGLVQPGGSLRLSCAASGFTFPWYRVHWVRQAPGKGLEWVSSIRSSGGFPYYNYKVKGRFTISRDNSKNTLYLQMNSLRAEDTAVYYCARFYDSFFDIWGQGTMVTVSS VL: DIQMTQSPSSVSASVGDRVTITCRASQGISSWLAWYQQKPGKAPKLLIYAASSLQSGVPSRFSGSGSGTDFTLTISSLQPEDFATYYCQQANSFPITFGQGTRLEIK	0.25 to 0.73 nM
CSL311 Fab fragment (Fab, V domains shown) VH: EVQLLESGGGLVQPGGSLRLSCAASGFTFPWYRVHWVRQAPGKGLEWVSSIRSSGGFPYYNYKVKGRFTISRDNSKNTLYLQMNSLRAEDTAVYYCARFYDSFFDIWGQGTMVTVSS VL: DIQMTQSPSSVSASVGDRVTITCRASQGISSWLAWYQQKPGKAPKLLIYAASSLQSGVPSRFSGSGSGTDFTLTISSLQPEDFATYYCQQANSFPITFGQGTRLEIK	0.38 to 0.67 nM
